The text below walks through data of US6962973B1, “Porcine α2δ-1 calcium channel subunit cDNA and soluble secreted α2δ-1 subunit polypeptides” (Warner-Lambert Company, priority 1999, dated 2005).

B1: mutant extending to residue 1018: C-terminally truncated porcine α2δ-1 subunit, residues 1019 to 1091 deleted (protein, listed as Sus scrofa)
chain: MAAGCLLALTLTLFQSLLIGPSSQEPFPSAVTIKSWVDKMQEDLVTLAKTASGVNQLVDIYEKYQDLYTVEPNNARQLVEIAARDIEKLLSNRSKALVRLALEAEKVQAAHQWREDFASNEVVYYNAKDDLDPEKNDSEPGSQRIKPVFIDDANFGRQISYQHAAVHIPTDIYEGSTIVLNELNWTSALDEVFKKNREEDPSLLWQVFGSATGLARYYPASPWVDNSRTPNKIDLYDVRRRPWYIQGAASPKDMLILVDVSGSVSGLTLKLIRTSVSEMLETLSDDDFVNVASFNSNAQDVSCFQHLVQANVRNKKVLKDAVNNITAKGITDYKKGFSFAFEQLLNYNVSRANCNKIIMLFTDGGEERAQEIFAKYNKDKKVRVFTFSVGQHNYDRGPIQWMACENKGYYYEIPSIGAIRINTQEYLDVLGRPMVLAGDKAKQVQWTNVYLDALELGLVITGTLPVFNITGQNENKTNLKNQLILGVMGVDVSLEDIKRLTPRFTLCPNGYYFAIDPNGYVLLHPNLQPKNPKSQEPVTLDFLDAELENDIKVEIRNKMIDGESGEKTFRTLVKSQDERYIDKGNRTYTWTPVNGTDYSLALVLPTYSFYYIKAKIEETITQARSKKGKMKDSETLKPDNFEESGYTFIAPRDYCNDLKISDNNTEFLLNFNEFIDRKTPNNPSCNTDLINRVLLDAGFTNELVQNYWSKQKNIKGVKARFVVTDGGITRVYPKEAGENWQENPETYEDSFYKRSLDNDNYVFTAPYFNKSGPGAYESGIMVSKAVEIYIQGKLLKPAVVGIKIDVNSWIENFTKTSIRDPCAGPVCDCKRNSDVMDCVILDDGGFLLMANHDDYTNQIGRFFGEIDPSLMRHLVNISVYAFNKSYDYQSVCEPGAAPKQGAGHRSAYVPSIADILHIGWWATAAAWSILQQFLLSLTFPRLLEAVEMEDDDFTASLSKQSCITEQTQYFFDNDSKSFSGVLDCGNCSRIFHVEKLMNTNLIFIMVESKGTCPCDTRL
B2: mutant extending to residue 1036: C-terminally truncated porcine α2δ-1 subunit, residues 1037 to 1091 deleted (protein, listed as Sus scrofa)
chain: MAAGCLLALTLTLFQSLLIGPSSQEPFPSAVTIKSWVDKMQEDLVTLAKTASGVNQLVDIYEKYQDLYTVEPNNARQLVEIAARDIEKLLSNRSKALVRLALEAEKVQAAHQWREDFASNEVVYYNAKDDLDPEKNDSEPGSQRIKPVFIDDANFGRQISYQHAAVHIPTDIYEGSTIVLNELNWTSALDEVFKKNREEDPSLLWQVFGSATGLARYYPASPWVDNSRTPNKIDLYDVRRRPWYIQGAASPKDMLILVDVSGSVSGLTLKLIRTSVSEMLETLSDDDFVNVASFNSNAQDVSCFQHLVQANVRNKKVLKDAVNNITAKGITDYKKGFSFAFEQLLNYNVSRANCNKIIMLFTDGGEERAQEIFAKYNKDKKVRVFTFSVGQHNYDRGPIQWMACENKGYYYEIPSIGAIRINTQEYLDVLGRPMVLAGDKAKQVQWTNVYLDALELGLVITGTLPVFNITGQNENKTNLKNQLILGVMGVDVSLEDIKRLTPRFTLCPNGYYFAIDPNGYVLLHPNLQPKNPKSQEPVTLDFLDAELENDIKVEIRNKMIDGESGEKTFRTLVKSQDERYIDKGNRTYTWTPVNGTDYSLALVLPTYSFYYIKAKIEETITQARSKKGKMKDSETLKPDNFEESGYTFIAPRDYCNDLKISDNNTEFLLNFNEFIDRKTPNNPSCNTDLINRVLLDAGFTNELVQNYWSKQKNIKGVKARFVVTDGGITRVYPKEAGENWQENPETYEDSFYKRSLDNDNYVFTAPYFNKSGPGAYESGIMVSKAVEIYIQGKLLKPAVVGIKIDVNSWIENFTKTSIRDPCAGPVCDCKRNSDVMDCVILDDGGFLLMANHDDYTNQIGRFFGEIDPSLMRHLVNISVYAFNKSYDYQSVCEPGAAPKQGAGHRSAYVPSIADILHIGWWATAAAWSILQQFLLSLTFPRLLEAVEMEDDDFTASLSKQSCITEQTQYFFDNDSKSFSGVLDCGNCSRIFHVEKLMNTNLIFIMVESKGTCPCDTRLLIQAEQTSDGPDPCDMVK
B3: mutant extending to residue 1063: C-terminally truncated porcine α2δ-1 subunit, residues 1064 to 1091 deleted (protein, listed as Sus scrofa)
chain: MAAGCLLALTLTLFQSLLIGPSSQEPFPSAVTIKSWVDKMQEDLVTLAKTASGVNQLVDIYEKYQDLYTVEPNNARQLVEIAARDIEKLLSNRSKALVRLALEAEKVQAAHQWREDFASNEVVYYNAKDDLDPEKNDSEPGSQRIKPVFIDDANFGRQISYQHAAVHIPTDIYEGSTIVLNELNWTSALDEVFKKNREEDPSLLWQVFGSATGLARYYPASPWVDNSRTPNKIDLYDVRRRPWYIQGAASPKDMLILVDVSGSVSGLTLKLIRTSVSEMLETLSDDDFVNVASFNSNAQDVSCFQHLVQANVRNKKVLKDAVNNITAKGITDYKKGFSFAFEQLLNYNVSRANCNKIIMLFTDGGEERAQEIFAKYNKDKKVRVFTFSVGQHNYDRGPIQWMACENKGYYYEIPSIGAIRINTQEYLDVLGRPMVLAGDKAKQVQWTNVYLDALELGLVITGTLPVFNITGQNENKTNLKNQLILGVMGVDVSLEDIKRLTPRFTLCPNGYYFAIDPNGYVLLHPNLQPKNPKSQEPVTLDFLDAELENDIKVEIRNKMIDGESGEKTFRTLVKSQDERYIDKGNRTYTWTPVNGTDYSLALVLPTYSFYYIKAKIEETITQARSKKGKMKDSETLKPDNFEESGYTFIAPRDYCNDLKISDNNTEFLLNFNEFIDRKTPNNPSCNTDLINRVLLDAGFTNELVQNYWSKQKNIKGVKARFVVTDGGITRVYPKEAGENWQENPETYEDSFYKRSLDNDNYVFTAPYFNKSGPGAYESGIMVSKAVEIYIQGKLLKPAVVGIKIDVNSWIENFTKTSIRDPCAGPVCDCKRNSDVMDCVILDDGGFLLMANHDDYTNQIGRFFGEIDPSLMRHLVNISVYAFNKSYDYQSVCEPGAAPKQGAGHRSAYVPSIADILHIGWWATAAAWSILQQFLLSLTFPRLLEAVEMEDDDFTASLSKQSCITEQTQYFFDNDSKSFSGVLDCGNCSRIFHVEKLMNTNLIFIMVESKGTCPCDTRLLIQAEQTSDGPDPCDMVKQPRYRKGPDVCFDNNALEDYTDCGGVS

The test can be described thus: [3H]gabapentin binding of C-terminally truncated porcine α2δ-1 subunit mutants expressed in COS-7 cells. Particulars: C-terminal deletions of the δ component, residues of SEQ ID NO:5. Here is the method: All media contained 50 units/ml penicillin and 50 microgramm per ml streptomycin. COS-7 cells were maintained in Dulbecco's modified Eagle's medium+glutamax, 10% fetal bovine serum (gamma irradiated) in a 37° C./5% CO2 incubator and passaged by trypsinization. For transient expression experiments, 150-mm culture dishes were seeded with […] and incubated for 16 h. Cells were then washed twice with 30 ml of optiMEM-1 and transfected (t=0 h) with 30 microgramm of plasmid DNA by lipofectamine-mediated transfection in 21 ml of optiMEM-1. At t=6 h, a further 21 ml of optiMEM-1 was added. At t=24 h, the medium was replaced with 42 ml of optiMEM-1. At t=48 h, the cells were washed twice with 30 ml of phosphate-buffered saline and then harvested in 3 ml of buffer A ([…], 1 mM EGTA, 20% glycerol, 10 mm HEPES, pH 7.4, at 4° C.) plus 0.1 mM phenymethylsulfonyl fluoride using a cell scraper.
All subsequent operations were performed at 4° C. The cells were rotated on a Spiramix (Denley Instruments) for 30 min, centrifuged at 20,000×g for 5 min, resuspended in 1 ml of buffer A, recentrifuged at 20,000×g for 5 min, and finally resuspended in 400 microliter of buffer A. Membrane preparations were stored at −70° C. until required.
Protein concentrations were determined by the method of Bradford using bovine serum albumin as a standard. [^3H]Gabapentin binding assays were performed as described previously. For saturation analysis, incubations were performed in duplicate. All other incubations were performed in triplicate. SDS-polyacrylamide gel electrophoresis and Western blotting were performed using the Novex gel and buffer system (Novex Europe, Frankfurt, Germany). Molecular weights were determined by reference to Kaleidoscope markers (Bio-Rad). Detection was performed using the ECL system (Amersham).
Turning to B1, the “[^3H]gabapentin binding” value is on record as “exhibit gabapentin binding activity”.

Turning to B2, the “[^3H]gabapentin binding” value is “exhibit gabapentin binding activity”.

As for B3, the “[^3H]gabapentin binding” value is “exhibit gabapentin binding activity”.
